Assays:
[1] = target: T1, Notch2 (EGF6-13) (Homo sapiens, UniProt Q04721); assay: SPR determination of equilibrium dissociation constants; assay type: binding
T1 construct: hNotch2 (EGF6-13, residues 221-530); gp67 signal peptide (N); made in house; host or cells: HiFive Trichoplusia ni insect cells (baculovirus)
T1 sequence (Q04721 221-530): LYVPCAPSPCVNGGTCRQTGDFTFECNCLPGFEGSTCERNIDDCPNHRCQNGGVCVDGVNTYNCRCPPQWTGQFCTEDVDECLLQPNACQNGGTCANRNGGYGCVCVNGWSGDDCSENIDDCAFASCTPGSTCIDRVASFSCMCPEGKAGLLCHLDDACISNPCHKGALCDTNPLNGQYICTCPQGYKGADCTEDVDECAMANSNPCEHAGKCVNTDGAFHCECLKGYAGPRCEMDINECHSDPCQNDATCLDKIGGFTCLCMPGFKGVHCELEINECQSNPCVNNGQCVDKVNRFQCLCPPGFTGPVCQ
Procedure: (§1) Equilibrium dissociation constants were determined by surface plasmon resonance using a Biacore T200 instrument (GE Healthcare). Approximately 100 resonance units (RU) of biotinylated Notch extracellular fragments (Notch1 (EGF6-13), Notch2 (EGF6-13), Notch3 (EGF5-12), Notch4 (7-12), and mouse Notch1 (EGF6-13)) were immobilized on individual flow cells at 5 μl/min using a streptavidin-coated sensor chip (Series S Sensor chip SA, GE Healthcare). Three-fold serial dilutions of recombinant DLL4 proteins (N-EGF5) starting at 50 μM (WT DLL4), 18 μM (DLL4.v2), and 6 μM (DLL4.v1 and Delta^MAX) were flowed over the chip at 25° C. in SPR buffer (20 mM HEPES pH 7.4, 150 mM NaCl, 1 mM calcium chloride, 0.1% BSA supplemented with 0.005% surfactant P20). Association (“on-rate”) and dissociation (“off-rate”) phases were performed at 10 μl/min for 120 seconds and 300 seconds, respectively. The sensor chip was regenerated after each injection with 30-second washes of 2.25M Magnesium Chloride containing 25% Ethylene Glycol at 50 μL/min. Data collection rate was performed at 10 Hz, and curves were reference-subtracted from a flow cell containing 100 RU of a negative control non-related protein (biotinylated mouse RNF43 PA domain). The maximum RU for each experiment was normalized to a value of 100% and plotted as a function of concentration using Prism 9 software (GraphPad). Steady-state binding and kinetic curves were fitted using the Biacore T200 evaluation software to a 1:1 Langmuir model to determine the KD values.

[2] = target: T2, Notch3 (EGF5-12) (Homo sapiens, UniProt Q9UM47); assay: as above; assay type: binding
T2 construct: hNotch3 (EGF5-12, residues 197-505); gp67 signal peptide (N); made in house; host or cells: HiFive Trichoplusia ni insect cells (baculovirus)
T2 sequence (Q9UM47 197-505): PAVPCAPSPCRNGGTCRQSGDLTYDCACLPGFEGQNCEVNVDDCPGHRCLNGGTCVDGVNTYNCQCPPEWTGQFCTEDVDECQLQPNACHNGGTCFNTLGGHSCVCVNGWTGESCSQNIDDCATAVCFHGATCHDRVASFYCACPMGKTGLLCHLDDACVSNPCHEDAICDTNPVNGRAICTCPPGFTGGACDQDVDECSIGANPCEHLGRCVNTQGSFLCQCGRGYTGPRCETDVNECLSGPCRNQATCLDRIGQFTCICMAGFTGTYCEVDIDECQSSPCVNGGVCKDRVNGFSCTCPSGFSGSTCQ
Procedure: as §1

[3] = target: T3, Notch4 (7-12) (Homo sapiens, UniProt Q99466); assay: as above; assay type: binding
T3 construct: hNotch4 (EGF7-12, residues 276-511); gp67 signal peptide (N); made in house; host or cells: HiFive Trichoplusia ni insect cells (baculovirus)
T3 sequence (Q99466 276-511): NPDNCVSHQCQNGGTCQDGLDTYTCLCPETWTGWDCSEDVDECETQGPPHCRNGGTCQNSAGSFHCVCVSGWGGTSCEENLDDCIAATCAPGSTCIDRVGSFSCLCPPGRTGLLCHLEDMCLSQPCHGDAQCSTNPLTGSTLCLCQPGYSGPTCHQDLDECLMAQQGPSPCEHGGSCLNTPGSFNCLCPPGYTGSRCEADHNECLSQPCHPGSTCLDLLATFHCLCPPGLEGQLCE
Procedure: as §1

[4] = test system: Notch1; assay: Kinetics for Notch activation assay (time course, CHO-K1 N1-Gal4); assay type: cell-based; settings: immobilized at 50 nM; most pronounced in first 4 to 8 hours
Procedure: 96-well tissue culture plates (Coastar) were pre-coated using ligand-oriented coupling as described above with 50 nM of DLL4 biotinylated variants. CHO-K1 N1-Gal4 reporter cells were detached with trypsin-EDTA, washed with DPBS, and 200 μL of α-MEM media containing 30,000 cells were added into wells. Notch activation was analyzed as end-points for 0, 4, 8, 12, 16, 20, and 24-hour measurements. Desired time point wells containing CHO-K1 N1-Gal4 reporter cells were washed once with 200 μL DPBS, detached with trypsin-EDTA, and quenched with 200 μL of α-MEM media. Next, reporter cells were resuspended and analyzed by flow cytometry reading the fluorescence of H2B-mCitrine (BD Accuri C6 Plus). Every time point represents the mean fluorescence intensity of Notch activation as percentage+s.d. of three independent biological replicates. Notch activation was reference-subtracted from a well containing streptavidin, BSA and CHO-K1 N1-Gal4 cells.

[5] = test system: CD8+ T cells; assay: Co-culture assay for T cell proliferation (K32 aAPCs expressing ligand); assay type: cell-based, human; settings: along the OKT3 concentrations, 96 h, vs K32 lacking DLL4 ligands (mock)
Procedure: Functional assays for human CD8^+ T cells were performed in co-culture with K562 cells expressing human CD32 (K32 cells) generated as described before7. Briefly, cells were γ-irradiated (100Gy) and washed twice with PBS before being loaded with OKT3 (0.0125-0.5 μg/mL, BioXcell) antibody at RT for 10 min. Human CD8^+ T cells were negatively isolated from PBMC and labeled with 5 μM of Cell Trace Violet (Invitrogen) according to manufacturer's specifications. Next, CD8^+ T cells were co-cultured with K32 cells at ratio 1:10 (T cell:K32). The frequency of proliferating T cells was determined after 96 hours by flow cytometry using a CytoFLEX II (Beckman Coulter). Zombie Green (Biolegend) was used for life/dead cell staining to discard dead cells from the analysis. A set of samples were additionally incubated with Golgi stop (BD) at 0.5 μL/well for 5 hours and washed with PBS for detection of intracellular IFNγ using anti-hIFNγ APC antibody (Biolegend). The frequency of IFNγ positive cells was analyzed by flow cytometry (CytoFLEX II, Beckman Coulter). Dead cells were excluded from the analysis by staining with Zombie green (Biolegend). The data represent the mean percentage of proliferating T cells or IFNγ^+ T cells±s.e.m. of four independent biological replicates.

[6] = SPR, 25° C., ligand N-EGF5, read-out: dissociation constant (KD)

Chain of Notch1 (P46531 295-488 limits assumed): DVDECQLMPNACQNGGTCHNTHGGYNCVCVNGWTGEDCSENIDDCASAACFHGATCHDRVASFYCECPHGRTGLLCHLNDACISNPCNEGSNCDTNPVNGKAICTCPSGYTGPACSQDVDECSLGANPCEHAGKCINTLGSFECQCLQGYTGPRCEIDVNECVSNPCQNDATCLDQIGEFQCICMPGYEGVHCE

Molecule | enhancement of affinity compared to WT DLL4 ([1]; Notch2) [fold] | Kd [1, 6] [nM] | enhancement of affinity compared to WT DLL4 ([2]; Notch3) [fold] | Kd [2, 6] [nM] | enhancement of affinity compared to WT DLL4 [3] [fold] | speed of Notch1 activation compared to WT DLL4 [4] | enhancement of the percentage of proliferating CD8+ T cells [5]
Delta^MAX: engineered human DLL4 consensus variant with 10 mutations combining DLL4.v1 and DLL4.v2 mutations; sequence matches SEQ ID NO: 4/10 (protein) SSVFQLQLQEFINERGVLASGRPCEPGCRTFFRVCLKHFQAVVSPGPCTFGTVSTPVLGTNSFAVRDDSSGGGRNPLQLPLNFTWPGTFSLIIEAWHAPGDDLRPEALPPDALISKFAIQGSLAVGQNWLLDEQTSTLTRLRYSYRVICSDNYYGDNCSRLCKKRNDYFGHYVCQPDGNPSCLPGWTGEYCQQPICLSGCHEQNGYCSKPAECLCRPGWQGRLCNECIPHPGCRHGTCSTPWQCLCDEGWGGLYCDQDLNYCTHHSPCKNGATCRNSGPRSYTCTCRPGYTGVDCELELSECDSNPCRNGGSCKDQEDGYHCLCPPGYYGLHCEHSTLSCADSPCFNGGSCRERNQGANYACECPPNFTGSNCE | 670 | 54 | 591 | 49 | 532 | more rapidly | 
WT DLL4: human wild-type Delta-like 4 (N-EGF5, residues 27-400), SEQ ID NO: 1 (protein) SGVFQLQLQEFINERGVLASGRPCEPGCRTFFRVCLKHFQAVVSPGPCTFGTVSTPVLGTNSFAVRDDSSGGGRNPLQLPFNFTWPGTFSLIIEAWHAPGDDLRPEALPPDALISKIAIQGSLAVGQNWLLDEQTSTLTRLRYSYRVICSDNYYGDNCSRLCKKRNDHFGHYVCQPDGNLSCLPGWTGEYCQQPICLSGCHEQNGYCSKPAECLCRPGWQGRLCNECIPHNGCRHGTCSTPWQCTCDEGWGGLFCDQDLNYCTHHSPCKNGATCSNSGQRSYTCTCRPGYTGVDCELELSECDSNPCRNGGSCKDQEDGYHCLCPPGYYGLHCEHSTLSCADSPCFNGGSCRERNQGANYACECPPNFTGSNCE |  |  |  |  |  |  | did not show a significant improvement

From US20260055369A1, “METHOD FOR GENERATING CELLS OF THE T CELL LINEAGE WITH ENGINEERING BROADLY REACTIVE HUMAN NOTCH LIGAND” (H. Lee Moffitt Cancer Center and Research Institute, Inc., priority 2022, published 2026)
